Measured values as given in article PMC6166725.

Target: maltose-binding protein fragment MBP198–265 [MBP: P0AEX9]
Assay: ITC; iTC200, 22 °C; 350 μM MBP198–265 in the cell, 3.5 mM TF^PPD-SBD in the syringe; 20 mM potassium phosphate pH 7.0, 100 mM KCl, 0.05% NaN3

Kd: 47 µM
dH: -5.9 kcal/mol
Substance: trigger factor tandem domain TF^PPD-SBD (from UniProt P0A850 113-246) (domain or fragment)
